Target: Fibronectin (FN) from human plasma (human) (UniProt P02751)
Chain of UniProt P02751 (P02751 32-2477): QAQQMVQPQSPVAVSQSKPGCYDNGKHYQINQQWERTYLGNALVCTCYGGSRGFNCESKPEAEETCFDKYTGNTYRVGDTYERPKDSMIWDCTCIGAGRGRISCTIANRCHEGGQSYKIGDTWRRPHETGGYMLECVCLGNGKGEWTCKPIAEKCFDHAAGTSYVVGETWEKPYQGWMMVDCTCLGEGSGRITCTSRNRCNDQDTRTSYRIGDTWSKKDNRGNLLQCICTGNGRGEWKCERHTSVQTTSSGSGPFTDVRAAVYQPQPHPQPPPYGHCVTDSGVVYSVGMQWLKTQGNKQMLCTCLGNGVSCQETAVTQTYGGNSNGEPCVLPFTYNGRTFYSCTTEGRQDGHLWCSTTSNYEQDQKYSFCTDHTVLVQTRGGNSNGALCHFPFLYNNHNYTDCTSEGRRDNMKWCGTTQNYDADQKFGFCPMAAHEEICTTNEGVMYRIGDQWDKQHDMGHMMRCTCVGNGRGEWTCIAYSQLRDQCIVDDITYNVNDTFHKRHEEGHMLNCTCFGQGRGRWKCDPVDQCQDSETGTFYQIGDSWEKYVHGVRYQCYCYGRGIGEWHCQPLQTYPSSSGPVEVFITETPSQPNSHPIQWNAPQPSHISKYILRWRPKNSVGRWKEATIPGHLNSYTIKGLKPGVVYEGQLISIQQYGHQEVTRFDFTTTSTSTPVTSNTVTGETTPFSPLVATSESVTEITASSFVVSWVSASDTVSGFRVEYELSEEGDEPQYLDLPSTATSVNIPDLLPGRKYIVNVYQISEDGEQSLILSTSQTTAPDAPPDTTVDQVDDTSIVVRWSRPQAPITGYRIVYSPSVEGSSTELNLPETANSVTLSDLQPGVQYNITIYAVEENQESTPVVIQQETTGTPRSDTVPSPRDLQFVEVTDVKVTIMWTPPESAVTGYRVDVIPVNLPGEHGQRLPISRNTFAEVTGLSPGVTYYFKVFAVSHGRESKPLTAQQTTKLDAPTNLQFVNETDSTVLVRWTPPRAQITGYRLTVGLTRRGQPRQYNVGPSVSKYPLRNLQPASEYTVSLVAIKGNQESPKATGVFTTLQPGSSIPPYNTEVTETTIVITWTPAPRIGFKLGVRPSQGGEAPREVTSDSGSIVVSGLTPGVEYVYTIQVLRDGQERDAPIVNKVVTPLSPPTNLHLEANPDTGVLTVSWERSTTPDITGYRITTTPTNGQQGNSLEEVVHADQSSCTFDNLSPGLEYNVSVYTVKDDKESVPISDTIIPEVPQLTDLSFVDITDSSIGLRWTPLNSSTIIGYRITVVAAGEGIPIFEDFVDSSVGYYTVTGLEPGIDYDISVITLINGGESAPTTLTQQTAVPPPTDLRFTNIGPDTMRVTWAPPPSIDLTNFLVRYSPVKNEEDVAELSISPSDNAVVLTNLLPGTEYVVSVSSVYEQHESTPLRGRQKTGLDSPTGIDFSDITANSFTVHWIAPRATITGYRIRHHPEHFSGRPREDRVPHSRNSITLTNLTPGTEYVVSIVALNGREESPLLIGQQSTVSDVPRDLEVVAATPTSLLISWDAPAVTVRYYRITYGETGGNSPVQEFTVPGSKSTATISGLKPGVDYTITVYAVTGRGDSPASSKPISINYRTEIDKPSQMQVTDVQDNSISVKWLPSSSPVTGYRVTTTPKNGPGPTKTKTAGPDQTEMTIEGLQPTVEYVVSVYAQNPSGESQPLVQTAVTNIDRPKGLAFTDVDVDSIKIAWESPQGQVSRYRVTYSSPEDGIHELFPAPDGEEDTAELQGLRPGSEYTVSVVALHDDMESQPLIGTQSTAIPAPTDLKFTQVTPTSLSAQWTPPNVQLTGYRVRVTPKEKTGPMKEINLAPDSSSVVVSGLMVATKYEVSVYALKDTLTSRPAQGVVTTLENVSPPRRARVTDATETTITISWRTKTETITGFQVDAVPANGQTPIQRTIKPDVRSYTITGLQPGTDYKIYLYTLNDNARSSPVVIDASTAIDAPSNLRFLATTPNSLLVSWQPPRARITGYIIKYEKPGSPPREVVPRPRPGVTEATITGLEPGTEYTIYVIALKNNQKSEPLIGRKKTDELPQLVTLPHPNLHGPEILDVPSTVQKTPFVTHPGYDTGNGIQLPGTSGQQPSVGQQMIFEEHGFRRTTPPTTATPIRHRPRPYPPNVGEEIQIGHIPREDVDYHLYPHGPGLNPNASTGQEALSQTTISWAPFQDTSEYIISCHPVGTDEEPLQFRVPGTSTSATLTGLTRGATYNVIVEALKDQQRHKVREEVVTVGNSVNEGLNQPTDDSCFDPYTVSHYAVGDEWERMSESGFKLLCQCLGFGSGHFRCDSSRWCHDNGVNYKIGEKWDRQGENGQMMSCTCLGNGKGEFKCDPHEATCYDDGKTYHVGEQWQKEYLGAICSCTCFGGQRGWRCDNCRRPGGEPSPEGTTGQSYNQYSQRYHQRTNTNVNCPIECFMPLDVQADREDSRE

fold more bead attachment on FN-coated GO than on FN-coated RGO: 5 fold
Substance: Recombinant human αVβ3 integrin (from UniProt P06756;P05106) (receptor)

Source: article doi:10.1101/2020.02.11.944678
